The values below are quoted from earlier work in article PMC5828769.

Series [1] deals with angiogenin (Homo sapiens) (UniProt P03950).
The target in series [2] is actin (AngBP) (Bos taurus) (UniProt P60712).

Chain of UniProt P03950 (P03950 25-147): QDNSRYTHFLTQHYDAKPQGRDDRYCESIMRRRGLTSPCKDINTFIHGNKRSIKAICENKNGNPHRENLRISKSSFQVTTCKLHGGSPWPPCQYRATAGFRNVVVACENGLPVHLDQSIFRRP

The term Ki denotes a measure of affinity in units of concentration, obtained from inhibition or displacement. In the case of “PRI (ribonuclease inhibitor) (from UniProt P13489)”, the Ki in series [1] was below 0.001 pM.
Broadly, the Kd is a measure of binding affinity in units of concentration. For the substance angiogenin (from UniProt P10152), the Kd in series [2] is 500 pM.
